Tests used:
[1] = tested on: CO[C@@H]1O[C@H](CO)[C@H](O)[C@H](O)[C@H]1O; assay: purified protein; conditions: apparent constant, co-substrate O2 (air), 20 mM potassium phosphate pH 7.0, 30°C, Cu2+-activated enzyme
[2] = tested on: CO[C@H]1O[C@H](CO)[C@H](O)[C@H](O)[C@H]1O; assay: purified protein; conditions: apparent constant, co-substrate O2 (air), 20 mM potassium phosphate pH 7.0, 30°C, Cu2+-activated enzyme
[3] = tested on: OC[C@H]1O[C@H](OC[C@H]2O[C@H](O[C@]3(CO)O[C@H](CO)[C@@H](O)[C@@H]3O)[C@H](O)[C@@H](O)[C@@H]2O)[C@H](O)[C@@H](O)[C@H]1O; assay: purified protein; conditions: apparent constant, co-substrate O2 (air), 20 mM potassium phosphate pH 7.0, 30°C, Cu2+-activated enzyme
[4] = target: T1, GalOx (galactose 6-oxidase from Fusarium oxysporum G12) (Fusarium oxysporum, UniProt V5NQ89); assay: ABTS/horseradish peroxidase coupled assay, […] nm, Michaelis-Menten fit; conditions: apparent constant; co-substrate O2 (air); 20 mM potassium phosphate pH 7.0, 30°C; Cu2+-activated enzyme
T1 construct: gene gao
T1 sequence (V5NQ89 40-681 limits assumed): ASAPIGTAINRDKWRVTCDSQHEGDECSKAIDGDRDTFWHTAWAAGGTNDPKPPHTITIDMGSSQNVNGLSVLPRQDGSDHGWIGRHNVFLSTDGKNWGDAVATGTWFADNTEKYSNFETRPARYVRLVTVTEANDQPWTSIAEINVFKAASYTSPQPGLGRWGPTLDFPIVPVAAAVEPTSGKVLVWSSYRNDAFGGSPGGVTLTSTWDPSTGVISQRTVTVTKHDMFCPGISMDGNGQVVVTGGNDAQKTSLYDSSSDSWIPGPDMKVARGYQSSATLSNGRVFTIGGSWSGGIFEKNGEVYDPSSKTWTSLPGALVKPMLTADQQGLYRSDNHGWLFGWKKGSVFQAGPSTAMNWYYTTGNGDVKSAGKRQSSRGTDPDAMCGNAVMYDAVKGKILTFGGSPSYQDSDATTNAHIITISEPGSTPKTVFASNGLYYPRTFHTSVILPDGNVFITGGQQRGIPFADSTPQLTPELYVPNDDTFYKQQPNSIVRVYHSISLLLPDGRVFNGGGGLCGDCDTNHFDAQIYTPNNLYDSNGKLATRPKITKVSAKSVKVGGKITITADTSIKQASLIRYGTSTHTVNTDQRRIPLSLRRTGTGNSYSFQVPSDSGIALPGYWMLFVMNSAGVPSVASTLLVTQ

**Q.** Which results are given for “GalOx (galactose 6-oxidase from Fusarium oxysporum G12) (Fusarium oxysporum)”?
**A.** Km [1]: 45 mM; Vmax [1]: 81 µmol/min/mg; kcat [1]: 99 s⁻¹; kcat/Km [1]: 2200 M⁻¹ s⁻¹; Km [2]: 41 mM; Vmax [2]: 47 µmol/min/mg; kcat [2]: 57 s⁻¹; kcat/Km [2]: 1400 M⁻¹ s⁻¹; Km [3]: 23 mM; Vmax [3]: 23 µmol/min/mg; kcat [3]: 28 s⁻¹; kcat/Km [3]: 1200 M⁻¹ s⁻¹

**Q.** How did the Km [4] turn out when `OC[C@H]1OC(O)[C@H](O)[C@@H](O)[C@H]1O` (stereo partly drawn) [D-galactose] was run?
**A.** 47 mM

From paper PMC4072685, “Galactose Oxidase from Fusarium oxysporum - Expression in E. coli and P. pastoris and Biochemical Characterization” (PLoS ONE, 2014)
